Assay results taken from patent US20140087995A1 (published 2014).
Numbered stars: 1 amine (or outer) side, 2 acyl side, 3 side chain; on linkers, the order of the positions; unused ones are H or OH. Bridge positions count the residues as written; N and C are the ends. Side chains are listed from the residue outwards. Ends that are not written are not given here. * marks the point of attachment. C20 diacid = O=C(O)CCCCCCCCCCCCCCCCCCC(=O)*; γGlu = O=C(O)[C@H](CCC(=O)[*:2])N[*:1]; AEEA = NCCOCCOCC(=O)O

T1: human calcitonin receptor (human, UniProt P30988 25-474)
T1 construct: whole, on cells; Assayed as cell membranes of BHK tk'ts 13 cells stably transfected with the human calcitonin receptor (Assay VII); also called hCTR; hCT
T1 sequence (looked up): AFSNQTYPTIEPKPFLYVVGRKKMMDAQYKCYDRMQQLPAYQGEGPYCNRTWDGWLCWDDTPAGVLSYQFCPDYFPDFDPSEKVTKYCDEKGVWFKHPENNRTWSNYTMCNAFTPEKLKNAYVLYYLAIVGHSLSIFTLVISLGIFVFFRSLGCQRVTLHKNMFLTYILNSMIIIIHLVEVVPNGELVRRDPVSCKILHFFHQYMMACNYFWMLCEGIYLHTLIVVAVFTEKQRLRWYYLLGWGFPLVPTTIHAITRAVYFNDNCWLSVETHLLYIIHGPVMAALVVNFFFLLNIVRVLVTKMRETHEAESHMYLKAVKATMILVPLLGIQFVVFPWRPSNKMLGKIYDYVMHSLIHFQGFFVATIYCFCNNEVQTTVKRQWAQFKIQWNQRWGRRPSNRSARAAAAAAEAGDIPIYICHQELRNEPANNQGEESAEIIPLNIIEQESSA

B1: N^ε1-[2-[2-[2-[[(4S)-4-carboxy-4-(19-carboxynonadecanoylamino)butanoyl]amino]ethoxy]ethoxy]acetyl]-[His14,Arg17,Pro21,Pro27,Pro34]-h-amylin (peptide)
peptide: K([AEEA-γGlu-C20 diacid])CNTATCATQRLAHFLRHSSPNFGAIPSSTNVGPNTY-NH2
modifications: disulfide 2-7; N-terminus assumed
SMILES: CC[C@H](C)[C@H](NC(=O)[C@H](C)NC(=O)CNC(=O)[C@H](Cc1ccccc1)NC(=O)[C@H](CC(N)=O)NC(=O)[C@@H]1CCCN1C(=O)[C@H](CO)NC(=O)[C@H](CO)NC(=O)[C@H](Cc1c[nH]cn1)NC(=O)[C@H](CCCNC(=N)N)NC(=O)[C@H](CC(C)C)NC(=O)[C@H](Cc1ccccc1)NC(=O)[C@H](Cc1c[nH]cn1)NC(=O)[C@H](C)NC(=O)[C@H](CC(C)C)NC(=O)[C@H](CCCNC(=N)N)NC(=O)[C@H](CCC(N)=O)NC(=O)[C@@H](NC(=O)[C@H](C)NC(=O)[C@@H]1CSSC[C@H](NC(=O)[C@@H](N)CCCCNC(=O)COCCOCCNC(=O)CC[C@H](NC(=O)CCCCCCCCCCCCCCCCCCC(=O)O)C(=O)O)C(=O)N[C@@H](CC(N)=O)C(=O)N[C@@H]([C@@H](C)O)C(=O)N[C@@H](C)C(=O)N[C@@H]([C@@H](C)O)C(=O)N1)[C@@H](C)O)C(=O)N1CCC[C@H]1C(=O)N[C@@H](CO)C(=O)N[C@@H](CO)C(=O)N[C@H](C(=O)N[C@@H](CC(N)=O)C(=O)N[C@H](C(=O)NCC(=O)N1CCC[C@H]1C(=O)N[C@@H](CC(N)=O)C(=O)N[C@H](C(=O)N[C@@H](Cc1ccc(O)cc1)C(N)=O)[C@@H](C)O)C(C)C)[C@@H](C)O
notes: also called compound 68
B2: N^ε1-[2-[2-[2-[[(4S)-4-carboxy-4-(19-carboxynonadecanoylamino)butanoyl]amino]ethoxy]ethoxy]acetyl]-[Lys14,Arg17,Pro21,Pro27,Pro31]-h-amylin (peptide)
peptide: K([AEEA-γGlu-C20 diacid])CNTATCATQRLAKFLRHSSPNFGAIPSSTPVGSNTY-NH2
modifications: disulfide 2-7; N-terminus assumed
SMILES: CC[C@H](C)[C@H](NC(=O)[C@H](C)NC(=O)CNC(=O)[C@H](Cc1ccccc1)NC(=O)[C@H](CC(N)=O)NC(=O)[C@@H]1CCCN1C(=O)[C@H](CO)NC(=O)[C@H](CO)NC(=O)[C@H](Cc1c[nH]cn1)NC(=O)[C@H](CCCNC(=N)N)NC(=O)[C@H](CC(C)C)NC(=O)[C@H](Cc1ccccc1)NC(=O)[C@H](CCCCN)NC(=O)[C@H](C)NC(=O)[C@H](CC(C)C)NC(=O)[C@H](CCCNC(=N)N)NC(=O)[C@H](CCC(N)=O)NC(=O)[C@@H](NC(=O)[C@H](C)NC(=O)[C@@H]1CSSC[C@H](NC(=O)[C@@H](N)CCCCNC(=O)COCCOCCNC(=O)CC[C@H](NC(=O)CCCCCCCCCCCCCCCCCCC(=O)O)C(=O)O)C(=O)N[C@@H](CC(N)=O)C(=O)N[C@@H]([C@@H](C)O)C(=O)N[C@@H](C)C(=O)N[C@@H]([C@@H](C)O)C(=O)N1)[C@@H](C)O)C(=O)N1CCC[C@H]1C(=O)N[C@@H](CO)C(=O)N[C@@H](CO)C(=O)N[C@H](C(=O)N1CCC[C@H]1C(=O)N[C@H](C(=O)NCC(=O)N[C@@H](CO)C(=O)N[C@@H](CC(N)=O)C(=O)N[C@H](C(=O)N[C@@H](Cc1ccc(O)cc1)C(N)=O)[C@@H](C)O)C(C)C)[C@@H](C)O
notes: also called compound 74
B3: N^ε1-[2-[2-[2-[[(4S)-4-carboxy-4-(19-carboxynonadecanoylamino)butanoyl]amino]ethoxy]ethoxy]acetyl]-[Thr14,Arg17,Pro21,Pro27,Pro31]-h-amylin (peptide)
peptide: K([AEEA-γGlu-C20 diacid])CNTATCATQRLATFLRHSSPNFGAIPSSTPVGSNTY-NH2
modifications: disulfide 2-7; N-terminus assumed
SMILES: CC[C@H](C)[C@H](NC(=O)[C@H](C)NC(=O)CNC(=O)[C@H](Cc1ccccc1)NC(=O)[C@H](CC(N)=O)NC(=O)[C@@H]1CCCN1C(=O)[C@H](CO)NC(=O)[C@H](CO)NC(=O)[C@H](Cc1c[nH]cn1)NC(=O)[C@H](CCCNC(=N)N)NC(=O)[C@H](CC(C)C)NC(=O)[C@H](Cc1ccccc1)NC(=O)[C@@H](NC(=O)[C@H](C)NC(=O)[C@H](CC(C)C)NC(=O)[C@H](CCCNC(=N)N)NC(=O)[C@H](CCC(N)=O)NC(=O)[C@@H](NC(=O)[C@H](C)NC(=O)[C@@H]1CSSC[C@H](NC(=O)[C@@H](N)CCCCNC(=O)COCCOCCNC(=O)CC[C@H](NC(=O)CCCCCCCCCCCCCCCCCCC(=O)O)C(=O)O)C(=O)N[C@@H](CC(N)=O)C(=O)N[C@@H]([C@@H](C)O)C(=O)N[C@@H](C)C(=O)N[C@@H]([C@@H](C)O)C(=O)N1)[C@@H](C)O)[C@@H](C)O)C(=O)N1CCC[C@H]1C(=O)N[C@@H](CO)C(=O)N[C@@H](CO)C(=O)N[C@H](C(=O)N1CCC[C@H]1C(=O)N[C@H](C(=O)NCC(=O)N[C@@H](CO)C(=O)N[C@@H](CC(N)=O)C(=O)N[C@H](C(=O)N[C@@H](Cc1ccc(O)cc1)C(N)=O)[C@@H](C)O)C(C)C)[C@@H](C)O
notes: also called compound 75
B4: N^ε1-[2-[2-[2-[[(4S)-4-carboxy-4-(19-carboxynonadecanoylamino)butanoyl]amino]ethoxy]ethoxy]acetyl]-[Ser14,Arg17,Pro21,Pro27,Pro31]-h-amylin (peptide)
peptide: K([AEEA-γGlu-C20 diacid])CNTATCATQRLASFLRHSSPNFGAIPSSTPVGSNTY-NH2
modifications: disulfide 2-7; N-terminus assumed
SMILES: CC[C@H](C)[C@H](NC(=O)[C@H](C)NC(=O)CNC(=O)[C@H](Cc1ccccc1)NC(=O)[C@H](CC(N)=O)NC(=O)[C@@H]1CCCN1C(=O)[C@H](CO)NC(=O)[C@H](CO)NC(=O)[C@H](Cc1c[nH]cn1)NC(=O)[C@H](CCCNC(=N)N)NC(=O)[C@H](CC(C)C)NC(=O)[C@H](Cc1ccccc1)NC(=O)[C@H](CO)NC(=O)[C@H](C)NC(=O)[C@H](CC(C)C)NC(=O)[C@H](CCCNC(=N)N)NC(=O)[C@H](CCC(N)=O)NC(=O)[C@@H](NC(=O)[C@H](C)NC(=O)[C@@H]1CSSC[C@H](NC(=O)[C@@H](N)CCCCNC(=O)COCCOCCNC(=O)CC[C@H](NC(=O)CCCCCCCCCCCCCCCCCCC(=O)O)C(=O)O)C(=O)N[C@@H](CC(N)=O)C(=O)N[C@@H]([C@@H](C)O)C(=O)N[C@@H](C)C(=O)N[C@@H]([C@@H](C)O)C(=O)N1)[C@@H](C)O)C(=O)N1CCC[C@H]1C(=O)N[C@@H](CO)C(=O)N[C@@H](CO)C(=O)N[C@H](C(=O)N1CCC[C@H]1C(=O)N[C@H](C(=O)NCC(=O)N[C@@H](CO)C(=O)N[C@@H](CC(N)=O)C(=O)N[C@H](C(=O)N[C@@H](Cc1ccc(O)cc1)C(N)=O)[C@@H](C)O)C(C)C)[C@@H](C)O
notes: also called compound 73
B5: N^ε1-[(4S)-4-carboxy-4-(19-carboxynonadecanoylamino)butanoyl]-[Ala14,Arg17,Pro21,Pro27,His34]-h-amylin (peptide)
peptide: K([γGlu-C20 diacid])CNTATCATQRLAAFLRHSSPNFGAIPSSTNVGHNTY-NH2
modifications: disulfide 2-7; N-terminus assumed
SMILES: CC[C@H](C)[C@H](NC(=O)[C@H](C)NC(=O)CNC(=O)[C@H](Cc1ccccc1)NC(=O)[C@H](CC(N)=O)NC(=O)[C@@H]1CCCN1C(=O)[C@H](CO)NC(=O)[C@H](CO)NC(=O)[C@H](Cc1c[nH]cn1)NC(=O)[C@H](CCCNC(=N)N)NC(=O)[C@H](CC(C)C)NC(=O)[C@H](Cc1ccccc1)NC(=O)[C@H](C)NC(=O)[C@H](C)NC(=O)[C@H](CC(C)C)NC(=O)[C@H](CCCNC(=N)N)NC(=O)[C@H](CCC(N)=O)NC(=O)[C@@H](NC(=O)[C@H](C)NC(=O)[C@@H]1CSSC[C@H](NC(=O)[C@@H](N)CCCCNC(=O)CC[C@H](NC(=O)CCCCCCCCCCCCCCCCCCC(=O)O)C(=O)O)C(=O)N[C@@H](CC(N)=O)C(=O)N[C@@H]([C@@H](C)O)C(=O)N[C@@H](C)C(=O)N[C@@H]([C@@H](C)O)C(=O)N1)[C@@H](C)O)C(=O)N1CCC[C@H]1C(=O)N[C@@H](CO)C(=O)N[C@@H](CO)C(=O)N[C@H](C(=O)N[C@@H](CC(N)=O)C(=O)N[C@H](C(=O)NCC(=O)N[C@@H](Cc1c[nH]cn1)C(=O)N[C@@H](CC(N)=O)C(=O)N[C@H](C(=O)N[C@@H](Cc1ccc(O)cc1)C(N)=O)[C@@H](C)O)C(C)C)[C@@H](C)O
notes: also called compound 93

Biological target: T1, human calcitonin receptor
Assay: SPA competition vs 125I-calcitonin, membranes of BHK cells with human calcitonin receptor (Assay VII)
Procedure, shortened: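 BHK hCTR membranes 35 ng/μL + SPA beads 0.05 mg/well; buffer 50 mM Hepes pH 7.4, 1 mM CaCl2, 5 mM MgCl₂, 0.1% OA, 0.02% Tween20. 120 min, 25° C., shaking. Scintillation count; IC50 by one-site binding competition.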

Binder | IC50
B1 | 5.66 nM
B2 | 79.9 nM
B3 | 60.9 nM
B4 | 5.38 nM
B5 | 17.8 nM

Biological target: T1, human calcitonin receptor
Assay: IC50 at hCTR divided by IC50 at hAmylin-R (SPA competition assays V and VII)
Procedure, shortened: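 Scintillation proximity competition binding on cell membranes at 35 ng/μL with SPA beads, in 50 mM Hepes pH 7.4, 1 mM CaCl2, 5 mM MgCl₂, 0.1% OA, 0.02% Tween20. Incubated 120 min at 25° C with shaking. IC₅₀ from one-site competition fit.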

Binder | Ratio hCT/hAmylin binding
B1 | 64.4
B2 | 101
B3 | 91.4
B4 | 51.7
B5 | 101
